Experiments:
[1] = tested on: CDKACT-WWH1 biosensor labelled with Cy5
[2] = tested on: CDKACT-WWH1 biosensor labelled with Cy3
[3] = tested on: GST-CDKACTH1 labelled with Cy3 (CDKACTH1-Cy3)
Sequence of GST-CDKACTH1 labelled with Cy3 (CDKACTH1-Cy3) (chain, as listed by the source): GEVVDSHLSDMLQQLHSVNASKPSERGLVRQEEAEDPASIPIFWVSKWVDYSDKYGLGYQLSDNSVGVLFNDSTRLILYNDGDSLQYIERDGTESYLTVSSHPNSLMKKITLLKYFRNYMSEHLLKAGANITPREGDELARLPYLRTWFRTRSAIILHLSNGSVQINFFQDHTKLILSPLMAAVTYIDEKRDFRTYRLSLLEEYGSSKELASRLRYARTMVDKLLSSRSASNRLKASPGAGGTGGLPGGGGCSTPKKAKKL

Sequence of CDKACT-WWH1 biosensor labelled with Cy3 (chain, as listed by the source): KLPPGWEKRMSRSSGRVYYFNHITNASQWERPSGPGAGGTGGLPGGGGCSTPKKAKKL

Substance | real-time fluorescence kinase assay (Cy5 fluorescence) [1] | competition in the fluorescence kinase assay (phosphorylation of CDKACTH1-Cy3) (unlabelled GST-CDKACTH1) | radioactive kinase assay (phosphorylation, 30 min at 30 C) (unlabelled GST-CDKACTH1) | real-time fluorescence kinase assay (Cy3 fluorescence) [2] | real-time fluorescence kinase assay (Cy3 fluorescence) [3] | competition in the fluorescence kinase assay (phosphorylation of CDKACTH1-Cy3) (histone H1)
recombinant active CDK2/Cyclin A (GST-CDK2/CIV complexed with His-Cyclin A) | CDKACTWWH1, reports on CDK2/CyclinA activity, through significant changes in fluorescence enhancement | histone and unlabelled sensor prevented full phosphorylation of CDKACTH1 | CDKACT-H1 is phosphorylated by GST-CDK2/Cyclin A and GST-CDK1-Cyclin B in a standard kinase assay | Both CDKACTH1 and CDKACTWWH1 report on CDK2/CyclinA activity, however CDKACTWWH1 yields greater changes in fluorescence enhancement | Both CDKACTH1 and CDKACTWWH1 report on CDK2/CyclinA activity | histone and unlabelled sensor prevented full phosphorylation of CDKACTH1
recombinant CDK1/Cyclin B (GST-CDK1/CIV Cyclin B) |  |  | CDKACT-H1 is phosphorylated by GST-CDK2/Cyclin A and GST-CDK1-Cyclin B in a standard kinase assay |  | CDK1/Cyclin B indeed phosphorylated CDKACTH1, however in the same conditions as CDK2/Cyclin A it did not induce the same response | 

From patent US20150355179
